Measurements as given in patent US8697369B2, “Method for screening a test substance for activating a receptor associated with FGF 21 activity” (National Institute of Advanced Industrial Science and …, priority 2007, dated 2014).

How the values were obtained:
[1] = target: T1, humanized FGFR3c (hR3c)-expressing BaF3 cells (Homo sapiens, UniProt P22607, A441S/A461E/A470D/A499P/A500N/A559S/A717S/A734V/A765M/C582S/D512S/D516E/D576E/D580N/D722E/D758Q/D785E/DEL405-414/E426D/E447G/E729D/E768D/F566Y/F579Y/F591S/F767L/G446S/G448T/G548D/G773S/G774F/H721N/I440P/I494L/I698V/I726M/INS417HSQMAVHKLAKSI/INS423TV/INS780T/K420R/K464R/K501R/K583H/L398M/L425A/L457Y/L554I/L645I/L752V/M488L/N428S/N434G/N453G/N644H/P401G/P402T/P436L/P502V/P584N/P778R/Q611K/Q775P/R397K/R399K/R416D/R498K/R568Q/S432N/S468P/S578C/S781C/T435V/T450M/T473V/T504K/T581P/T590S/T753A/T757N/V503T/V523I/V642I/V670I/V751I/V754L); assay: DNA synthesis in humanized FGFR3c-expressing BaF3 cells; format: cell-based; details: humanized FGFR3c only; 10 μg/ml heparin
T1 construct: expressed in transfected cells; host or cells: BaF3 (mouse pro-B) cells; pSRalpha vector
T1 sequence (P22607 other isoform, or with tags, fused parts or gaps with the stated changes): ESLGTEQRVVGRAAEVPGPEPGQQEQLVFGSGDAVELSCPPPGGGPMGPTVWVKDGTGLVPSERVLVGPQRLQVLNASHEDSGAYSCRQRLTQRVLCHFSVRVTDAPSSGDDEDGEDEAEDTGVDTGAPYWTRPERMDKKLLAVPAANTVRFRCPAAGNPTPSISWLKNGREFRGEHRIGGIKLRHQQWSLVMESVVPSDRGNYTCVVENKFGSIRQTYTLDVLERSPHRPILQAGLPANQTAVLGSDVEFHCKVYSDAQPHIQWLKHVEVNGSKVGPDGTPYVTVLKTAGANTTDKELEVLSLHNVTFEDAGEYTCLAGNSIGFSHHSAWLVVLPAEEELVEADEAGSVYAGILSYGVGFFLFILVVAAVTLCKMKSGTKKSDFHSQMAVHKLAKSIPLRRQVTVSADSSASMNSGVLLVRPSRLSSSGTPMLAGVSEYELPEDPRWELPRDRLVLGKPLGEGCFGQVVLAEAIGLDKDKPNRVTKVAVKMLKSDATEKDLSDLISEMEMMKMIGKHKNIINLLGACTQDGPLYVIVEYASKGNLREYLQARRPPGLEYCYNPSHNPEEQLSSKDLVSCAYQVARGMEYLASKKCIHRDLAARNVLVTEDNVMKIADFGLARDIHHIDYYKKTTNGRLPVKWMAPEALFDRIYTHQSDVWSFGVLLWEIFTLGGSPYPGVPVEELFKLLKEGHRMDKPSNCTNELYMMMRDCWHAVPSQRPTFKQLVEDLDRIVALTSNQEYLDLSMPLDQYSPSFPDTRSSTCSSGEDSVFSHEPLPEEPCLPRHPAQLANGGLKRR
Description: The homology between human FGFR3 and mouse FGFR3 at the amino acid sequence level is 93%. […] The cDNA of humanized FGFR3c was prepared from a commercially available human RNA sample (Takara Bio Inc.) by PCR. The sequence of its intracellular portion was substituted with the sequence of humanized FGFR1, and it was then introduced into an expression vector having an SRalpha promoter (pSRalpha). The FGFR3c expression vector was introduced into BaF3 cells by an electroporation method, so as to obtain FGFR3c-expressing BaF3 cells as G418-resistant clones. In the case of FGFR3c/betaKlotho-co-expressing cells, a betaKlotho expression vector was introduced into the FGFR3c-expressing BaF3 cells, so as to obtain the aforementioned cells as Puromycin-resistant clones. In the presence of heparin, humanized FGF21 was added in various types of concentrations to FGFR3c-expressing cells or FGFR3c/betaKlotho-co-expressing cells, and the amount of DNA synthesized was then measured.

[2] = test system: 3T3-L1 fibroblasts forced to express betaKlotho; assay: GLUT1 mRNA level in 3T3-L1 fibroblasts forced to express betaKlotho; format: cell-based; details: betaKlotho expression vector; various concentrations; 6 hours
Description: A betaKlotho expression vector or an empty vector used as a control, into which betaKlotho cDNA had not been inserted, were introduced into 3T3-L1 fibroblasts, and FGF21 was then added in various types of concentrations to a culture solution of the 3T3-L1 fibroblasts. The obtained mixture was cultured for 6 hours. Thereafter, RNA was extracted, and the mRNA level of GLUT1 was then measured.

Molecule	amount of DNA synthesized (thymidine incorporation) [1]	mRNA level of GLUT1 [2]
FGF1: conventional FGF used as a control	promoted the DNA synthesis	
FGF21: fibroblast growth factor 21; mouse-derived protein used in Examples 1-7 and 10-13 (protein) AYPIPDSSPLLQFGGQVRQRYLYTDDDQDTEAHLEIREDGTVVGAAHRSPESLLELKALKPGVIQILGVKASRFLCQQPDGALYGSPHFDPEACSFRELLLEDGYNVYQSEAHGLPLRLPQKDSPNQDATSWGPVRFLPMPGLLHEPQDQAGFLPPEPPDVGSSDPLSMVEPLQGRSPSYAS		increased depending on the amount of FGF21
